According to patent publication US20140017168A1:

How the values were obtained:
[1] = biological target: somatostatin receptors on AR42J cells (rat); assay: apparent IC50, competition with 111In(DTPA-octreotide) on AR42J cells, 3 h at RT
[2] = biological target: receptor for bombesin analogues (target not named where the EC50 values are printed) (UniProt P30550); assay: assay and target not described at this place
[3] = biological target: gastrin-releasing peptide receptor on PC-3 cells (UniProt P30550); assay: competition with 125I-BBN on PC-3 cells, inhibitor 250 to 2 nM
Sequence of gastrin-releasing peptide receptor on PC-3 cells (P30550 whole entry): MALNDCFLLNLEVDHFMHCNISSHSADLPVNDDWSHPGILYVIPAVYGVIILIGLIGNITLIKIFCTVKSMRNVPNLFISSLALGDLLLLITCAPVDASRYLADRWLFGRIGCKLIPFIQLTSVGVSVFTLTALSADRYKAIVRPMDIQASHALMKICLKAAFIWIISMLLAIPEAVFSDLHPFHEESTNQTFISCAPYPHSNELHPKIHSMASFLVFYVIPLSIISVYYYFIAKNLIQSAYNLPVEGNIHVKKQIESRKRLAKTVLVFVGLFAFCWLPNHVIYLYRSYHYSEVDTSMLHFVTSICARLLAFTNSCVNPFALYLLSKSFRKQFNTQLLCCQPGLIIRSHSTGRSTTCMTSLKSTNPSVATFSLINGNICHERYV

Sequence of somatostatin receptors on AR42J cells (rat) (P30680 whole entry): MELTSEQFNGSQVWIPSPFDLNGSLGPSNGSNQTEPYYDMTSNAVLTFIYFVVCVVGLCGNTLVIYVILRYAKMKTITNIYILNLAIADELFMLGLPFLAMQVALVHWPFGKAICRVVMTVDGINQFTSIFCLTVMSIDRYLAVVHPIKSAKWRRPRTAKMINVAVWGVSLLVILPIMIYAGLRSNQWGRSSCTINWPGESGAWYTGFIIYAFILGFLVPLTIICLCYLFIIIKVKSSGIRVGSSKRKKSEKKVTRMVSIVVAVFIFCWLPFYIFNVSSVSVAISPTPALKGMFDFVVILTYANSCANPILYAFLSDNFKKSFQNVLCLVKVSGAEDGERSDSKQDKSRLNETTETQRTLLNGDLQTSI
Sequence of receptor for bombesin analogues (target not named where the EC50 values are printed) (P30550 whole entry): as the sequence (P30550 whole entry) above

For “Al^19F(IMP466), IMP466 = NOTA-D-Phe-Cys-Phe-D-Trp-Lys-Thr-Cys-Throl (peptide)”, which IC50 [1] is on record?
Its IC50 is 3.6 nM.

For “^69Ga(IMP466), IMP466 = NOTA-D-Phe-Cys-Phe-D-Trp-Lys-Thr-Cys-Throl (peptide)”, which IC50 [1] is on record?
The IC50 was 13 nM.

How did the IC50 [1] turn out when ^115In(DTPA-octreotide) (peptide) was run?
The IC50 was 6.3 nM.

With ^125I-Bombesin (Perkin-Elmer) (peptide) as the substance, how does the EC50 [2] read?
The EC50 was 59 nM.

How did the IC50 [3] turn out when “commercially available BBN peptide (BBN positive control)” was run?
Its IC50 is 24.4 nM.
